{
  "source": "paper PMC10368991",
  "about": "“LolA and LolB from the plant-pathogen Xanthomonas campestris forms a stable heterodimeric complex in the absence of lipoprotein” (Frontiers in Microbiology, 2023)",
  "binders": {"B1": {"name": "Xanthomonas campestris pv. campestris (Xcc) LolA (natural protein)", "chain": "GARQELDTFTRGLKGLDGQFSQRVTDANGRVKENSSGRVALATPRQFRWEYAKPYKQLIVADGKKVWVFDPDLEQVTVRAQGSEEQNSPLVALIDPTRLDKQYDVSEEAAPRDGLQWLSLTPKVDTDASFQMASLGFGKDGLAKMEVVDAVGQRTAISFSGWKRNPAFAADTFRYTPGKGVDVVGDAQ"}},
  "biological_target": "T1, Xanthomonas campestris pv. campestris (Xcc) LolB, periplasmic variant (Xanthomonas campestris pv. campestris …)",
  "T1 chain": "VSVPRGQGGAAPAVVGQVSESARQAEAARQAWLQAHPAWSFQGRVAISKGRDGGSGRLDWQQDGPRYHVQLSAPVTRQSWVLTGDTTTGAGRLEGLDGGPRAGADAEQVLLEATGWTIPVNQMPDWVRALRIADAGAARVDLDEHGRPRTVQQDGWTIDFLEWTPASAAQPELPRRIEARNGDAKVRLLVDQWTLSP",
  "experiment": "ITC; LolA 1 mM in the syringe, LolB 0.1 (unit inferred) in the cell; 25.0 °C; 20 mM TRIS-HCl pH 7.8, 150 mM NaCl, 5% glycerol; 1:1 binding model; triplicate",
  "conditions": "both partners purified",
  "data": [
    {"binder": "B1", "values": [
      {"measurement": "Kd", "result": "14.6 ± 1", "unit": "µM"},
      {"measurement": "dH", "result": "-1.63 ± 0.03", "unit": "kcal/mol"},
      {"measurement": "stoichiometry N", "result": "0.96 ± 0.04"}
    ]}
  ]
}
